Experimental findings from paper PMC9376891 are described below.

The target in this data set is Rae1(31-368);Nup98(157-213) GLEBS (human;human, UniProt P78406;P52948 31-368;157-213, |). The experiment in a line: EMSA. To be noted: protein: recombinant;recombinant; tags: untagged;N-terminal His tag removed by TEV; copies: 1;1; label: 5' FAM; single strand.
Chain of Rae1(31-368);Nup98(157-213) GLEBS (P78406 31-368, chain 1 of 2): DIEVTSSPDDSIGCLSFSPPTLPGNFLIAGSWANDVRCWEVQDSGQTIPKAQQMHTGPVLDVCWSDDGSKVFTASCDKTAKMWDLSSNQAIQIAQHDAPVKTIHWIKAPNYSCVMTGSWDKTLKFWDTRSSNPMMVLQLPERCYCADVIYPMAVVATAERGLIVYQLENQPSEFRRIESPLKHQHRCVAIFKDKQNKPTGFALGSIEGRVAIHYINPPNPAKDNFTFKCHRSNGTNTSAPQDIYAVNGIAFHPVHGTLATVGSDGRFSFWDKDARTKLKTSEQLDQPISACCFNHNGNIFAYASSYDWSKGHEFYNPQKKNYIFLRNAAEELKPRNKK
Chain of Rae1(31-368);Nup98(157-213) GLEBS (P52948 157-213, chain 2 of 2): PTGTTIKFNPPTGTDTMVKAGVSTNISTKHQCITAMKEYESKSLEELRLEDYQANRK

On to UUUUUUUUUU (ssRNA) [10-mer poly(U) ssRNA], for which the binding result is listed as “binds”.
